According to patent publication US20240067728A1:

Key:
[1] = molecular target: PD-L1-His antigen (human) (UniProt Q9NZQ7); assay: SPR (Biacore T200), PD-L1-His immobilised on chip, antibody as mobile phase, 1:1 Binding fit
[2] = molecular target: PD-L1 on CHO-PD-L1 cells (Promega PD-1/PD-L1 Blockade Bioassay) (UniProt Q9NZQ7)
Sequence of PD-L1 on CHO-PD-L1 cells (Promega PD-1/PD-L1 Blockade Bioassay) (Q9NZQ7 19-290 limits assumed): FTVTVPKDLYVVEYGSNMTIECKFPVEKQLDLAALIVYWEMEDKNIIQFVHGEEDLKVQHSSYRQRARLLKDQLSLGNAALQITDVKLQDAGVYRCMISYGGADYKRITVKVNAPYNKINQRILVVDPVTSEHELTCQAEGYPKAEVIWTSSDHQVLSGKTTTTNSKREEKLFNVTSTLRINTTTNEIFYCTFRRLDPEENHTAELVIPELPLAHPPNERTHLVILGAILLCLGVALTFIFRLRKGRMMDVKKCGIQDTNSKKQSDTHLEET

Sequence of PD-L1-His antigen (human) (Q9NZQ7 other isoform, or with tags, fused parts or gaps limits assumed): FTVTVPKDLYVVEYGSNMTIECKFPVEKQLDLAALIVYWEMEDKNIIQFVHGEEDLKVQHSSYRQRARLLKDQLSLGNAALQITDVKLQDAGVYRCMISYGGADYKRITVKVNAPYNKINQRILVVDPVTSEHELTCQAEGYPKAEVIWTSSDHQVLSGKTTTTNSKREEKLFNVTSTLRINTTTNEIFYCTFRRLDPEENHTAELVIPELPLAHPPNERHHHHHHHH

- Kd [1]: 1.84 nM
- EC50 (luciferase reporter, PD-1/PD-L1 blockade MOA assay; blocked partner: PD-1 on Jurkat-PD1 cells) [2]: 0.087 µg/mL
Substance: ATE antibody (amino acid sequence identical to atezolizumab)
